These are literature values, as cited in paper PMC11417995.

pKd: −log10 of the molar value.

Data set [1] has as its target ubiquitin (Homo sapiens) (UniProt P0CG47). Briefly: TR-FRET.
The target is the same in data set [2]. Briefly: NMR.
For data set [3] the target is unchanged. Briefly: SPR.

Chain of UBE2K UBA (P61086 157-200): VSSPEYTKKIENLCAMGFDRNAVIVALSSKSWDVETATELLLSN
Chain of UBE2K (P61086 2-200): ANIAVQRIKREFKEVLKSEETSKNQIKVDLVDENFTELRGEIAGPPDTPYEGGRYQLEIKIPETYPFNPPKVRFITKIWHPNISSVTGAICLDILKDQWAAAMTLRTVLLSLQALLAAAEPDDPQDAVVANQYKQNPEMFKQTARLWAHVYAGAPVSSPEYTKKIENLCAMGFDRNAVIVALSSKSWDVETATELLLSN
Chain of CDC34A (P49427 whole entry): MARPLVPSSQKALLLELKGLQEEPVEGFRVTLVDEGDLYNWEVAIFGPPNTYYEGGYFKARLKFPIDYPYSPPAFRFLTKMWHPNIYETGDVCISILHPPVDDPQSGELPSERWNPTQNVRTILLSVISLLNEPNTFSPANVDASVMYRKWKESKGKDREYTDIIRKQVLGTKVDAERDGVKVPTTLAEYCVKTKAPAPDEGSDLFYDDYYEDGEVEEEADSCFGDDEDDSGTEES

For the substance CDC34A (from UniProt P49427), in the data set with ubiquitin (Homo sapiens) [1], the pKd is 4.85.
Regarding UBE2K (from UniProt P61086), the pKd in the data set with ubiquitin (Homo sapiens) [2] is 2.90.
On to UBE2K UBA (from UniProt P61086), for which, in the data set with ubiquitin (Homo sapiens) [3], the pKd is 3.40.
